From US20140093514A1 (UNIVERSITY OF ZURICH, published 2014)
Read-outs that look alike come from different tables or passages of the source.

Legend:
recombinant MAGEA4 = target: T1, recombinant MAGEA4 (UniProt P43358 1-317, limits assumed); assay: Western blot; recombinant MAGEA4 in lane B, human antibody as probe
T1 construct: also called CT1.4
T1 sequence (looked up): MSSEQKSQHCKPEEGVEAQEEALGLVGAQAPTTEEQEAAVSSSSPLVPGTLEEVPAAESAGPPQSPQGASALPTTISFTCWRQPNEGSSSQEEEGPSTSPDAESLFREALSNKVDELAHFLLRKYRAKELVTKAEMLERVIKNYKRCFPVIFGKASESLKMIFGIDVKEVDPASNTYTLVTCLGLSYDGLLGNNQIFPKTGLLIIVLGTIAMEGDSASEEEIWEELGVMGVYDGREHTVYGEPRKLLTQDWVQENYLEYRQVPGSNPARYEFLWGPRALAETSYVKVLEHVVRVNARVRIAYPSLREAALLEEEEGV
Method: Membranes were incubated with human antibodies 21B4, 54B4, 94G11, 9A5, 31H10, 43B10, 2G4 or 20C10. Binding of human antibodies to proteins on the membrane was evaluated. The results are depicted in FIG. 3A).

[1] = target: T2, recombinant MAGEA3 protein (human, UniProt P43357 1-314); assay: ELISA, recombinant MAGEA3 coated to plastic, serial dilutions of antibody, OD 450 nm
T2 construct: In Experiment 4C MAGEA3 was also expressed in transiently transfected HEK293T cells (fixed and permeabilized); also called His-tagged MAGEA3; CT1.3
T2 sequence (P43357 whole entry): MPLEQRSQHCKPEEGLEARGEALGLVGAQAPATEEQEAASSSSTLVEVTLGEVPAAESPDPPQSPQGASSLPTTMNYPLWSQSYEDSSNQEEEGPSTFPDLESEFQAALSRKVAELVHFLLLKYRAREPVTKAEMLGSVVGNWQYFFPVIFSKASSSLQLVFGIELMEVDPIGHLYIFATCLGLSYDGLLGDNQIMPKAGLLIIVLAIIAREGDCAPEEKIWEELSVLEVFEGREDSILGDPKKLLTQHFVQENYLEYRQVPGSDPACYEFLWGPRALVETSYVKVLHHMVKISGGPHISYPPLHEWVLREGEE
Method: His-tagged MAGEA3 expressed in bacteria was column-purified and used to coat 96 well microplates (Costar, USA). Plates were washed with PBS-T and blocked 1 h at room temperature with PBS containing 2% BSA (Sigma, Buchs, Switzerland). Patient sera, B cell conditioned medium, or recombinant antibody preparations were incubated for 2 h at room temperature. Binding of human IgG to MAGEA3 was determined using a horseradish peroxidase conjugated goat anti human Fc-gamma-specific antibody (Jackson ImmunoResearch, Europe Ltd., Cambridgeshire, UK) followed by measurement of the HRP activity using a TMB substrate solution (TMB, Sigma, Buchs, Switzerland).
(§1) The EC₅₀, the concentration at which half-maximal binding of the antibody to its antigen is observed was determined in MAGEA3 ELISA using serial dilutions of the human monoclonal antibodies 21B4, 54B4, 94G11, 9A5, 31H10, 43B10, 2G4, 20C10, 26C9 and 4D6. EC50 values were determined mathematically by derivation of the best-fit line using GraphPad software.

MAGEA3 peptide No 22 = target: T3, MAGEA3 peptide No 22; assay: ELISA on plates coated with overlapping 20mer MAGEA3 peptides; antibody at 1 µg/ml; HRP goat anti-human IgG Fc-gamma
T3 construct: member of the group m18; also called 20mer peptide, amino acids 211-230 of MAGEA3
T3 peptide: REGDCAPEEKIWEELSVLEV
Method: (§2) 20mer peptides spanning the entire MAGEA3 protein with 10 aa overlaps shared by each adjacent peptide (Peptides&Elephants, Nuthetal, Germany) were used to coat Maxisorp ELISA plates (Nunc, Rochester, N.Y.). As control a 20mer peptide representing amino acids 40-21 from the NY-ESO-1 protein was used (rev). The numbering of amino acids of MAGEA3 is based on SEQ ID No.: 101.
(§3) Human recombinant antibody was used at a concentration of 1 μg/ml with the exception of antibody 9A5 which was used at […]. Bound human antibody was detected using horseradish peroxidase-conjugated goat anti-human IgG Fc-gamma specific antibodies (Jackson ImmunoResearch, Europe Ltd., Cambridgeshire, UK).

MAGEA6 = target: T4, MAGEA6 (UniProt P43360 1-314, limits assumed); assay: flow cytometry on fixed, permeabilized HEK293T cells transiently transfected with MAGEA6; PE-labeled anti-human antibody
T4 construct: whole, on cells; Intracellular antigen: the transfected cells were fixed and permeabilized before staining; also called CT1.6
T4 sequence (P43360 whole entry): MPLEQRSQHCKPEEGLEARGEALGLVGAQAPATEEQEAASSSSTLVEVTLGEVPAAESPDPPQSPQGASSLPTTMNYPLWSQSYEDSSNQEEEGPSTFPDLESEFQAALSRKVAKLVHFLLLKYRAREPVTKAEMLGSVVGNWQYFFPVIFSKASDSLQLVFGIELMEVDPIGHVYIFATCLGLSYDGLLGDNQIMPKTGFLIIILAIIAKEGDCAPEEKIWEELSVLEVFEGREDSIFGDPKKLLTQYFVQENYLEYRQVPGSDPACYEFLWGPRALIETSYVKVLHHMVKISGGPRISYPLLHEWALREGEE
Method: HEK293T cells transiently transfected with MAGEA3 or MAGE A6 were fixed and permeabilized and incubated with human-derived antibodies. Binding of human-derived antibodies to the cells was detected by flow cytometry using PE-labeled anti-human antibodies. […] Filled histograms show binding of 21B4, 31H10, 94G11 and 54B4 to transiently transfected HEK 293 cells. Only a proportion of the cells was transfected resulting in a population expressing the transgene and in a population not expressing the transgene. […] The results are depicted in FIG. 3C).

[2] = target: T2, recombinant MAGEA3 protein; assay: ELISA, recombinant MAGEA3 coated to plastic, serial dilutions of antibody, OD 450 nm; remark: listed apart in the source
Method: FIG. 4 EC50 determination of recombinant human monoclonal antibodies to MAGEA3. MAGEA3-ELISA was carried out using recombinant MAGEA3 coated to plastic and serial dilutions of the human monoclonal antibodies 21B4, 54B4, 94G11, 9A5, 31H10, 43B10, 2G4, 20C10, 26C9 and 4D6 (A-J). EC50 values are indicated in each figure.
as §1

recombinant MAGEA1 = target: T5, recombinant MAGEA1 (UniProt P43355 1-309, limits assumed); assay: ELISA on coated recombinant MAGEA proteins, serial dilutions of antibody (concentrations not printed on the sheet)
T5 construct: also called CT1.1
T5 sequence (looked up): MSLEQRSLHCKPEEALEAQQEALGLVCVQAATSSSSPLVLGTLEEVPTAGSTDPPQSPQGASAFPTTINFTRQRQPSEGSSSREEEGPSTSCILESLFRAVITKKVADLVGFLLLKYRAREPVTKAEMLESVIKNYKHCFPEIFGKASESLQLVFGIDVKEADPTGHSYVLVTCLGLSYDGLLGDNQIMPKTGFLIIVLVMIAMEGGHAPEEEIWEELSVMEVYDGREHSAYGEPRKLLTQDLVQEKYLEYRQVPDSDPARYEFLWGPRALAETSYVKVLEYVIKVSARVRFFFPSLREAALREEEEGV
Method: (§4) Recombinantly expressed MAGEA3, MAGEA1, MAGEA4, MAGEA10 were coated on ELISA plates and binding of MAGEA3 antibodies 21B4, 94G11, 2G4, 9A5 and 54B4 to these proteins was tested. The results are depicted in FIG. 3B).

recombinant MAGEA10 = target: T6, recombinant MAGEA10 (UniProt P43363 1-369, limits assumed); assay: as above
T6 construct: also called CT1.10
T6 sequence (P43363 whole entry): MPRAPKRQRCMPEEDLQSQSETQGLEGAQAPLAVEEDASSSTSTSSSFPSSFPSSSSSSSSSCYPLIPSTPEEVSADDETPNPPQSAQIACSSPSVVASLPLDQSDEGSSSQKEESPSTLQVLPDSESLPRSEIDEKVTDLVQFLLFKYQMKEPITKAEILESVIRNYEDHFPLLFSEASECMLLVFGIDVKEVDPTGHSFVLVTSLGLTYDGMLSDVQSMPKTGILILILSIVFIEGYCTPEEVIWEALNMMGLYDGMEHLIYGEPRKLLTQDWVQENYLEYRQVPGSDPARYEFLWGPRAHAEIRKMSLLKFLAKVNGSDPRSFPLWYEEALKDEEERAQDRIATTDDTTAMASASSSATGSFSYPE
Method: as §4

MAGEA3 peptide No 10 = target: T7, MAGEA3 peptide No 10; assay: ELISA on plates coated with overlapping 20mer MAGEA3 peptides; antibody at 1 µg/ml; HRP goat anti-human IgG Fc-gamma
T7 construct: member of the group m18; also called 20mer peptide, amino acids 91-110 of MAGEA3
T7 peptide: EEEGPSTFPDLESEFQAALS
Method: as §2, §3

MAGEA3 peptide No 5 = target: T8, MAGEA3 peptide No 5; assay: ELISA on plates coated with overlapping 20mer MAGEA3 peptides; antibody 9A5 at '4 mg/ml' as printed in paragraph 376; HRP goat anti-human IgG Fc-gamma
T8 construct: member of the group m18; also called 20mer peptide, amino acids 41-60 of MAGEA3
T8 peptide: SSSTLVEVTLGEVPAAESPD
Method: as §2, §3

B1: 54B4 (antibody, V domains shown)
VH: EVQLVESGGGLVPPGGSLRLSCAASGFTFTTYGLTWVRQAPGKGLEWISYITSSGTIIHYADSVKGRFTISRDNAKNSLYLQMNSLRAEDTAVYYCARGRRGTVVRGVMLDQWGQGTLVTVSS
VL: DIQMTQSPSTLSASIGDRVTITCRASQSISRWLAWYQQKPGQAPKLLIYEASSLESGVPSRFSGSGSGTEFTLTISSLQPDDFAIYYCQQYSSYSLTFGGGTKVEIK
**Q.** What does the source list for B1?
**A.** binding result (recombinant MAGEA4): no binding; EC50 [1]: 0.029 nM; binding result (MAGEA3 peptide No 22): binds; binding result (MAGEA6): binds

B2: 43B10 (antibody, V domains shown)
VH: EVQLVESGGGLVPPGGSLRLSCAASGFTFTTYGLNWVRLAPGKGLEWISYITSSGTIIHYADSVKGRFTISRDNAKNSLYLQMNSLRAEDTAVYYCARGRRGTVVRGVMLDQWGQGTLVTVSS
VL: DIQMTQSPSTLSASIGDRVTIACRASQSISRWLAWYQQKPGQAPKLLIYEASSLESGVPSRFSGSGSGTEFTLTISSLQPDDFATYYCQQYSSYSLAFGGGTKVEIK
**Q.** What does the source list for B2?
**A.** EC50 [1]: 0.109 nM; binding result (MAGEA3 peptide No 22): binds

B3: 4D6 (antibody, V domains shown)
VH: QVQLVESGGGVVQPGRSLRLSCAASGFSFSDYAMHWVRQAPGKGLEWVAVISYDGTKKYYADSVEGRLTISRDNSQNTLSLQMSGLRVEDKGVYYCARDGCDSARCSYGMDVWGQGTTVTVSS
VL: EIVMTQSPSSLSASVGDRVTITCRASQDIRNDLGWYQQKPGKAPKLLIYGASTLQSGVPSRFSGSGSGTDFTLTISSLQPEDFATYYCLQDYSYRWTFGQGTKVEIK
**Q.** Does B3 bind [1]?
**A.** binds

B4: 20C10 (antibody, V domains shown)
VH: QLQLQESGPGLVKPSETLSLTCTVSGDSISASTDSWGWIRQSPGKGLEWIGVTSYSGRPYYNPSLKRRVTISVDTSKNHFSLKLTSVTAADRALYYCARRPSLIWAFDIWGQGTMVTVSS
VL: QSALTQPASVSGSPEQSITISCTGTSSAVGNYNLVSWYQHHPGKAPLLIIYDVNERPSGVSHRFSGSRSGNTASLTISGLLAEDEADYFCCSYGGTSSLHYVFGTGTRVTVL
**Q.** Which EC50 [2] does the source give for B4 here?
**A.** 37.3 nM

B5: 26C9 (antibody, V domains shown)
VH: QVQLVQSGAAVKKPGSSVKVSCTASGGTFGTSGITWVRQAPGQGLEWVGRVTPILGITRYAQRFQGRVTITADTSTSTAYMELSRLRSDDTALYYCARAPEMTINSDWGQGTLVTVSS
VL: QSALTQPASVSGSPGQSITISCTGTRSDVGGHNYVSWYQQDPDKAPKLIIYEVSKRPSGVSNRFSGSKSGNTASLTISGLQAEDEADYYCSSYTGTTILEVFGTGTTVTVL
**Q.** Which EC50 [2] does the source give for B5 here?
**A.** 0.523 nM

B6: 2G4 (antibody, V domains shown)
VH: QVQLVQSGAAVKKPGSSVKVSCTASGGTFGTSGITWVRQAPGQGLEWVGRITPILGITRYGQRFQGRVTITADKSTSTAYMELSRLRSDDTALYYCARAPEMTINSDWGQGTLVTVSS
VL: QSALTQPASVSGSPGQSITISCTGTRSDVGGHNYVSWYQHDPDKAPKLIIYEVSKRPSGISNRFSGSKSGNTASLTISGLQAEDEADYYCSSYTGSTILEVFGTGTTVTVL
**Q.** What does the source list for B6?
**A.** binding result (recombinant MAGEA4): no binding; EC50 [2]: 7.79 nM; binding result (recombinant MAGEA1): no binding; binding result (recombinant MAGEA10): no binding

B7: 31H10 (antibody, V domains shown)
VH: QVQLVESGGGVVQPGGSLRLSCAASDFTFSDHGMHWVRQAPGKGLQWVSFISHHGTNKYYIDSVKGRFIISRDNSKNTLYLQMNSLRTEDTAVYYCATVIGYFFGYGFDVWGQGTTVIVSS
VL: EIVMTQSPATLSVSPGEEINLACRASHSISGNLAWYQQKPGQGPRLLIYSASTRATGISARFSGSGSGTEFTLTISSLESEDFAVYFCQQYNNWPLTFGGGTKVEIK
**Q.** Which results are given for B7?
**A.** binding result (recombinant MAGEA4): no binding; EC50 [2]: 0.0192 nM; binding result (MAGEA3 peptide No 10): binds; binding result (MAGEA6): binds

B8: 94G11 (antibody, V domains shown)
VH: QVLLQESGPGLVKPSQILSLTCTVSGGSNRSVSYYWSWIRQPAGQGLEWIGRIYPSGSTHYNPSLKSRVTISVDTSKNQFSLKLSSLTAADTAMYFCAWGGYDSLGGRRLRHFDYWGQGALVTVSS
VL: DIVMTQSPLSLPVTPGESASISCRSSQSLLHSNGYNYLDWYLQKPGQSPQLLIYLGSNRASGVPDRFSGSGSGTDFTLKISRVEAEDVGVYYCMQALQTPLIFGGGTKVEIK
**Q.** Does B8 bind (recombinant MAGEA4)?
**A.** no binding

**Q.** And the EC50 [1]?
**A.** 0.129 nM

**Q.** Does B8 bind (recombinant MAGEA1)?
**A.** no binding

**Q.** Does B8 bind (recombinant MAGEA10)?
**A.** no binding

**Q.** Does B8 bind (MAGEA6)?
**A.** binds

B9: 9A5 (antibody, V domains shown)
VH: EVQLVASGGVMVKPGGSLRLSCAASGFSFKNAWMTWVRQAPGMGLEWVGRITSKTDGETTDYAAPVKGRFTISRDDSKNILYLQMNSLKTEDTAVYYCATRTTVCYVCWGQGTLVTVSS
VL: DIVLTQSPDSLAVSQGERATINCKSSQSLLYSSNNKNYLAWFQQKPGQPPKLLIYWASTRESGVPDRFSGSGSGTDFTLTISSLQAEDVAVYYCQQYYTIGWTFGPGTKVEIK
**Q.** Which results are given for B9?
**A.** binding result (recombinant MAGEA4): no binding; EC50 [2]: 0.259 nM; binding result (recombinant MAGEA1): no binding; binding result (recombinant MAGEA10): no binding; binding result (MAGEA3 peptide No 5): binds
